Test results from publication PMC12098658, “JMY powers dendritogenesis and is regulated by CaM revealing a general, critical principle in neuromorphogenesis” (Communications Biology, 2025).

Experiments:
Conditions in all cases: both partners purified
Sepharose 4B-coupled CaM = target: T1, Sepharose 4B-coupled CaM (UniProt P0DP23 1-149, coupled to Sepharose 4B); assay: pull-down; purified GST-JMY WH2#1 or GST with immobilised CaM; IP buffer with 150 mM NaCl and 2 µM Ca2+ (1 mM EGTA for comparison); immunoblot
T1 construct: calmodulin (CaM), bought coupled to Sepharose 4B; also called immobilized CaM; CaM matrix; source: bought: GE Healthcare (coupled to Sepharose 4B)

[1] = target: rabbit skeletal muscle actin (rabbit, UniProt P68135 1-377); assay: pull-down; in vitro reconstitution: GST-JMY WH2#1 immobilised, untagged CaM and rabbit skeletal muscle α-actin together; 10 mM HEPES pH 7.4, 250 mM NaCl, 0.1 mM MgCl2, 1% Triton X-100, with 1 mM EGTA or 20 µM Ca2+; quantitative fluorescence immunoblot
untagged recombinant CaM = target: T2, untagged recombinant CaM (UniProt P0DP23 1-149); assay: as above
T2 construct: calmodulin (CaM), subcloned from Mito-mCherry-CaM into pGEX-6P; A few vector residues probably remain after PreScission cleavage; also called calmodulin; source: E. coli BL21, purified as GST-CaM (pGEX-6P), GST removed with PreScission Protease

binding result (Sepharose 4B-coupled CaM): binds
binding result [1]: binds
binding result (untagged recombinant CaM): binds
B1: GST-JMY WH2#1 (domain or fragment)
chain: GNERSIPKSASAPAAHLFDSSQLVSARKKLRKTVEGLQRRRVS
notes: Mus musculus JMY, NP_067285.2, residues 841-883 (subcloned from GFP-JMY WH2#1 into pGEX-4T1); pGEX-4T1 by surmise puts GST at the N-terminus; also called first WH2 domain of JMY and flanking regions; source: E. coli BL21, purified (glutathione sepharose)
